Patent publication US20160297892A1 (Novo Nordisk, published 2016)

B1: M-hProtS-6F230A10 monoclonal antibody (antibody, mouse IgG1, V domains shown)
VH: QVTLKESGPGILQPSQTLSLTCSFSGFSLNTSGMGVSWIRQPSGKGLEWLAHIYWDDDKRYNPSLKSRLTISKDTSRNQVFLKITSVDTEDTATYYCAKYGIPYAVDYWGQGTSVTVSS
VL: QIVLTQSPAIMSASPGEKVTMTCSASSSVSYMYWYQQKPGSSPRLLIYDTSNLASGVPVRFSGSGSGTSYSLTISRMEAEDAATYYCQQWSSYPLTFGAGTKLELKR
B2: 0322-0000-1069 (murine-human IgG4 chimer) (antibody, V domains shown)
VH: QVQLQQPGAELVRPGASVKLSCKASGYTFTSYWINWVKQRPEQGLEWIGRIDPYDSETHYNQKFKDKAILTVDKSSSTAYMQLSSLTSEDSAVYYCARWGGSGYAMDYWGQGTSVTVSS
VL: QIVLSQSPAILSASPGEKVTMTCRASSSVSYMYWYQQKPGSSPKPWIYATSNLASGVPARFSGSGSGTSYSLTISRVEAEDAATYYCQQWSSIPPTFGGGTKLEIKR
notes: Mouse variable domains on human IgG4(S241P) / human kappa constant regions

Key:
[1] = molecular target: T1, Gla-domain deleted recombinant human Protein S (human, UniProt P07225 114-676); assay: ELISA, recombinant antibody
T1 construct: also called hPS-dGla; desGla human Protein S
T1 sequence: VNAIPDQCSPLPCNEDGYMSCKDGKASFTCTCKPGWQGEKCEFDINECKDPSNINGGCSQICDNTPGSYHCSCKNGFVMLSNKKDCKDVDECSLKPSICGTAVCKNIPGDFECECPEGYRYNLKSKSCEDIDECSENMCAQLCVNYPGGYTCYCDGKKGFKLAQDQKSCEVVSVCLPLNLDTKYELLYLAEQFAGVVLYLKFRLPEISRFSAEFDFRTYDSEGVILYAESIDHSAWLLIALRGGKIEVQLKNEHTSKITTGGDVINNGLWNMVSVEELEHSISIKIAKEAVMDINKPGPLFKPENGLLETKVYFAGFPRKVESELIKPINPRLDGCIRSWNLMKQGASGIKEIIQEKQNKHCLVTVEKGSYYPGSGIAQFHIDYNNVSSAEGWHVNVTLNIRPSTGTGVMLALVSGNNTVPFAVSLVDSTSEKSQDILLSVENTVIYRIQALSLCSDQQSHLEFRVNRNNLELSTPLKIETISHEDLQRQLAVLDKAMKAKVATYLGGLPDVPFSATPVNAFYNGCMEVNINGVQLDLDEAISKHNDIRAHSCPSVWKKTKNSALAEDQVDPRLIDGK

[2] = molecular target: T2, EGF domain 1 and 2 of recombinant human Protein S (human, UniProt P07225 114-200, limits assumed); assay: ELISA, recombinant antibody
T2 construct: domain: EGF domain 1 and 2; also called hEGF1-2
T2 sequence (looked up): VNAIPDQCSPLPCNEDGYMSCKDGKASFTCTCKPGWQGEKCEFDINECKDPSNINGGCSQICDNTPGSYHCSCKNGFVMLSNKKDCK

[3] = molecular target: T3, human Protein S (plasma derived) (human, UniProt P07225 42-676); assay: ELISA, recombinant antibody
T3 construct: Bought plasma-derived human Protein S (Haematologic Technologies or Enzyme Research Laboratories); also called Plasma PS; free Protein S
T3 sequence: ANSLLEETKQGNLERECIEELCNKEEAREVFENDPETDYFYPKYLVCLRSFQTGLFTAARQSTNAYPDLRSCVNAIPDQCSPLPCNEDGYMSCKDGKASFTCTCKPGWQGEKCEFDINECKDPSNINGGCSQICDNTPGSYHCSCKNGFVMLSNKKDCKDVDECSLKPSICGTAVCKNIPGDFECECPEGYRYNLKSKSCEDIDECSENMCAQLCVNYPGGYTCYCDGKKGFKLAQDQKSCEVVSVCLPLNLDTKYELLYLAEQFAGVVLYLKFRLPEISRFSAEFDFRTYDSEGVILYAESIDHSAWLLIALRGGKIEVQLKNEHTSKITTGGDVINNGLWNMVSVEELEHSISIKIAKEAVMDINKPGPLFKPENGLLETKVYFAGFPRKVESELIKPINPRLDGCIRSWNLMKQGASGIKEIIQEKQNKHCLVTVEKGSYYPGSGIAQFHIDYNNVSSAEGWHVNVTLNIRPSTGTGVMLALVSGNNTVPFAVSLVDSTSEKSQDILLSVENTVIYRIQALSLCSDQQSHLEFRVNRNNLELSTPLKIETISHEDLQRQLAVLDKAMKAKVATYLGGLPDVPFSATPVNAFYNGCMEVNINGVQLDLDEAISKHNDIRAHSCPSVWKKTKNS

[4] = molecular target: T4, EGF1-4 domains of human Protein S with C-terminal HPC4 tag (human, UniProt P07225 114-286, partial hydroxylation of Asn or Asp in the EGF domains (detected by MS)); assay: ELISA, recombinant antibody
T4 construct: also called hEGF1-4; human Protein S EGF1-4
T4 sequence: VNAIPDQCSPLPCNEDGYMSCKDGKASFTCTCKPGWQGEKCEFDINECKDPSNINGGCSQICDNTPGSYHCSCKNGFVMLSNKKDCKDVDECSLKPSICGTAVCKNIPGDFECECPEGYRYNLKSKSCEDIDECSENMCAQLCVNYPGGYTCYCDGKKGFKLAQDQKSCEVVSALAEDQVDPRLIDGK

[5] = molecular target: T3, human Protein S (plasma derived); assay: SPR; protein S binding to the full length antibody

| Binder | binding result [1] | binding result [2] | binding result [3] | binding result [4] | Kd [5] [nM] |
| --- | --- | --- | --- | --- | --- |
| B1 | binds | no binding | binds | binds | – |
| B2 | – | – | – | – | 20 |
